Measured values reported in article PMC9802656 (2022).

Key:
[1] = target: SARS-CoV-2 WT S protein expressed on HEK293T cells (SARS-CoV-2, UniProt P0DTC2); assay: FACS
SARS-CoV-2 S protein S1 = SARS-CoV-2 S protein S1 (SARS-CoV-2); assay: ELISA
[2] = target: SARS-CoV-2 S protein (entire S ectodomain) as used with m31A7 (SARS-CoV-2, UniProt P0DTC2 14-1213); assay: ELISA

B1: monoclonal antibody m31A7 (IgG) (antibody, V domains shown)
VH: EVQLQQSGPEMVKPGASVKISCKTSGYTFTEYTIYWVKQSHGKSLEWLGGINPNIGDTTYNQKFKGKATLTVDTSSSTAYMELRSLTSEDSAVYYCAREVYNYSFAYWGQGTLVTVSA
VL: DIVMSQSPSSLAVSVGEKVTMSCKSSQSLLYSSNQKNYLAWYQQKLGQTPKLLIYWASSRESGVPDRFTGSGSGTDFTLTISSVRAEDLAVYYCQQYYRYPLTFGVGTKLELK
For B1, the EC50 [1] was 0.0685 nM, the EC50 (SARS-CoV-2 S protein S1) was 0.0235 nM and the EC50 [2] was 0.0312 nM.
